Square brackets hold non-standard residues; d marks the D form. Ends that are not written are not given here. αMeE = C[C@](N)(CCC(=O)O)C(=O)O

human glucagon receptor, sequence (P47871 26-477): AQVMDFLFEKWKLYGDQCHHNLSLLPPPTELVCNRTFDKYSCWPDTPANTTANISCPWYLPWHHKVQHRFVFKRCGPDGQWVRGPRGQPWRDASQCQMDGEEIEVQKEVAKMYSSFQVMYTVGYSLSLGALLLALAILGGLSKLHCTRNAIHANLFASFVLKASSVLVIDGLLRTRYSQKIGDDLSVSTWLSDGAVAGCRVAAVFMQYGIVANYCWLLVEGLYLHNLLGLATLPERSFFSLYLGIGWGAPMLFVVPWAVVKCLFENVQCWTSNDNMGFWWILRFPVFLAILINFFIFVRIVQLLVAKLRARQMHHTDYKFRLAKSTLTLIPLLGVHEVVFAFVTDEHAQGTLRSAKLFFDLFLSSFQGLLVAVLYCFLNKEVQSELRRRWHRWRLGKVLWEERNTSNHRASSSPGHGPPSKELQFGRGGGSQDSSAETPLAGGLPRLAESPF

One experiment addresses human glucagon receptor (human, UniProt P47871 26-477). The experiment in a line: cell-based or functional assay.
For H[αMeE]QGTFTSDYSKYLCEKRAKEFVQWLMNT (not fully specified) [glucagon derivative of SEQ ID NO: 12], the “EC50 (nM), cAMP concentration in CHO cells expressing hGCGR” value (shortened to “EC50 (nM) … in CHO cells expressing hGCGR”) stood at 1.38 nM.

H[αMeE]QGTFTSDYSKYLDEKCAKEFVQWLMNT (not fully specified) [glucagon derivative of SEQ ID NO: 14]: the “EC50 (nM) … in CHO cells expressing hGCGR” value is 0.38 nM.

With H[αMeE]QGTFTSDYSKYLDECRAKEFVQWLMNT (not fully specified) [glucagon derivative of SEQ ID NO: 13], the “EC50 (nM) … in CHO cells expressing hGCGR” value was determined as 0.23 nM.

The target of a further experiment is human GLP-1 receptor (human, UniProt P43220 24-463). As to the kind of experiment: cell-based or functional assay.
Consider H[αMeE]QGTFTSDYSKYLCEKRAKEFVQWLMNT (not fully specified) [glucagon derivative of SEQ ID NO: 12], for which the “EC50 (nM), cAMP concentration in CHO cells expressing hGLP-IR” value (shortened to “EC50 … in CHO cells expressing hGLP-IR”) stood at 0.96 nM.

As to H[αMeE]QGTFTSDYSKYLDEKCAKEFVQWLMNT (not fully specified) [glucagon derivative of SEQ ID NO: 14], the “EC50 … in CHO cells expressing hGLP-IR” value was 0.17 nM.

Turning to H[αMeE]QGTFTSDYSKYLDECRAKEFVQWLMNT (not fully specified) [glucagon derivative of SEQ ID NO: 13], the “EC50 … in CHO cells expressing hGLP-IR” value is 0.27 nM.
